Molecular target: human IL-17RA extracellular domain (human), Q96F46
Assay: SPR
Conditions: ligand; chains chain; biotin on the Avi-tag (E. coli BirA), for the SPR measurements only; remark: other sources report otherwise

B1: human IL-17F homodimer, Q96PD4 31-163 (protein)
chain: RKIPKVGHTFFQKPESCPPVPGGSMKLDIGIINENQRVSMSRNIESRSTSPWNYTVTWDPNRYPSEVVQAQCRNLGCINAQGKEDISMNSVPIQQETLVVRRKHQGCSVSFQLEKVLVTVGCTCVTPVIHHVQ
Q: For B1, which Kd is on record?
A: The Kd was 0.136 µM.
